Results published in article PMC11065751.
Values joined by “and” are separate entries in the source; they are usually repeats but may differ in a detail not shown here. Equal entries are not always repeated.

Legend:
[1] = molecular target: Vangl2-Long (70 kD isoform), endogenous mouse (mouse (endogenous in IMCD3)); assay: co-IP; endogenous proteins; SKBR7 or IMCD3 cell lysates (50 mM Hepes-NaOH pH 8, 150 mM NaCl, 10% glycerol, 2 mM EDTA, 0.5% NP-40) incubated overnight at 4 °C with N-VGL2 pAb (VANGL2-Long specific) or mAb 36E3, protein A or G beads; blots with mAb 36E3 and mAb 19D5; 62 kD and 70 kD bands quantified for the ratio
[2] = molecular target: Vangl2-Long (70 kD isoform), endogenous mouse (mouse (endogenous in IMCD3)); assay: co-IP; serial IP of endogenous proteins from IMCD3 cell extracts: two successive rounds of IP with N-VGL2 pAb, then IP of the Vangl2-Long depleted lysate with a Vangl1-specific antibody

B1: Vangl2 (canonical 62 kD isoform), endogenous mouse (natural protein)
chain: MDTESQYSGYSYKSGHSRSSRKHRDRRDRHRSKSRDGSRGDKSVTIQAPGEPLLDNESTRGDERDDNWGETTTVVTGTSEHSISHDDLTRIAKDMEDSVPLDCSRHLGVAAGAILALLSFLTPLAFLLLPPLLWREELEPCGTACEGLFISVAFKLLILLLGSWALFFRRPKASLPRVFVLRALLMVLVFLLVISYWLFYGVRILDARERSYQGVVQFAVSLVDALLFVHYLAVVLLELRQLQPQFTLKVVRSTDGASRFYNVGHLSIQRVAVWILEKYYHDFPVYNPALLNLPKSVLAKKVSGFKVYSLGEENSTNNSTGQSRAVIAAAARRRDNSHNEYYYEEAEHERRVRKRRARLVVAVEEAFTHIKRLQEEEQKNPREVMDPREAAQAIFASMARAMQKYLRTTKQQPYHTMESILQHLEFCITHDMTPKAFLERYLAAGPTIQYHKERWLAKQWTLVSEEPVTNGLKDGIVFLLKRQDFSLVVSTKKVPFFKLSEEFVDPKSHKFVMRLQSETSV
stoichiometry N (Vangl2 per Vangl2-Long) [1]: 3 and 4 | percent of Vangl2 depleted by IP of Vangl2-Long [2]: 50%
